Results taken from patent publication US20180142000A1 (NATIONAL RESEARCH COUNCIL OF CANADA, published 2018).

Molecular target: FlagV1P
Assay: fluorescence microscopy with FITC-labeled pentabody on whole bacteria

B1: C. jejuni strain 11168 flagella (other)
chain 1: GFRINTNVAALNAKANADLNSKSLDASLSRLSSGLRINSAADDASGMAIADSLRSQANTLGQAISNGNDALGILQTADKAMDEQLKILDTIKTKATQAAQDGQSLKTRTMLQADINRLMEELDNIANTTSFNGKQLLSGNFINQEFQIGASSNQTVKATIGATQSSKIGLTRFETGGRISTSGEVQFTLKNYNGIDDFQFQKVVISTSVGTGLGALADEINKNADKTGVRATFTVETRGIAAVRAGATSDTFAINGVKIGKVDYKDGDANGALVAAINSVKDTTGVEASIDANGQLLLTSREGRGIKIDGNIGGGAFINADMKENYGRLSLVKNDGKDILISGSNLSSAGFGATQFISQASVSLRESKGQIDANIADAMGFGSANKGVVLGGYSSVSAYMSSAGSGFSSGSGYSVGSGKNYSTGFANAIAISAASQLSTVYNVSAGSGFSSGSTLSQFATMKTTAFGVKDETAGVTTLKGAMAVMDIAETAITNLDQIRADIGSVQNQVTSTINNITVTQVNVKAAESQIRDVDFAAESANYSKANILAQSGSYAMAQANSVQQNVLRLLQ
chain 2: GFRINTNIGALNAHANSVVNARELDKSLSRLSSGLRINSAADDASGMAIADSLRSQAATLGQAINNGNDAIGILQTADKAMDEQLKILDTIKTKATQAAQDGQSLKTRTMLQADINRLMEELDNIANTTSFNGKQLLSGNFINQEFQIGASSNQTIKATIGATQSSKIGLTRFETGGRISSSGEVQFTLKNYNGIDDFQFQKVVISTSVGTGLGALAEEINKSADKTGVRATFTVETRGIAAVRAGTTSDTFAINGVTIGQVAYEDGDGNGALVAAINSVKDTTGVEASIDANGQLLLTSREGRGIKIDGNIGGGAFINADMKENYGRLSLVKNDGKDILISGSNLSSAGFGATQFISQASVSLRESKGRFDANIADAMGFGSANKGVVLGGYSSVSAYMSSAGSGFSSGSGYSVGSGKNYSTGFANAIAISAASQLSTVYNVSAGSGFSSGSTLSQFATMKTTAFGVKDETAGVTTLKGAMAVMDIAETATTNLDQIRADIGSVQNQLQVTINNITVTQVNVKAAESTIRDVDFAAESANFSKYNILAQSGSYAMSQANAVQQNVLKLLQ
Does B1 bind?
Result: no binding
